Measurements: the supplement of paper PMC5998384

Columns and labels:
[1] = system: HeLa Kyoto; test: solubility in G1/S (NP-40 vs SDS abundance) (log2 ratio); higher = more soluble; settings: cell cycle stage: G1/S
[2] = system: HeLa Kyoto; test: melting temperature (median over replicates), in situ; higher = more thermally stable
[3] = system: HeLa Kyoto; test: solubility change mitosis vs G1/S (difference of NP-40 vs SDS log2 ratios) (log2 ratio difference); higher = more soluble in mitosis
[4] = system: HeLa Kyoto; test: thermal stability score vs G1/S (z-score of summed log2 fold changes over temperatures); higher = more thermally stable than in G1/S
[5] = cell cycle stage: early G1 (4.5 h after nocodazole release)
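Wherever melting temperature (median over replicates), in situ is given: HeLa Kyoto cells synchronized by double thymidine or nocodazole block, proteins quantified by TMT10plex mass spectrometry, three independent biological replicates.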
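Wherever solubility change mitosis vs G1/S (difference of NP-40 vs SDS log2 ratios) is given: synchronized HeLa Kyoto cells (double thymidine block for G1/S, nocodazole release for mitosis), protein amounts in NP-40 versus SDS lysates quantified by mass spectrometry, three biological replicates.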
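Wherever solubility in G1/S (NP-40 vs SDS abundance) is given: HeLa Kyoto cells arrested at G1/S by double thymidine block, proteins quantified by TMT10plex mass spectrometry in mild NP-40 versus SDS extracts, three biological replicates.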
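Wherever thermal stability score vs G1/S (z-score of summed log2 fold changes over temperatures) is given: synchronized HeLa Kyoto cells, proteins quantified by TMT10plex mass spectrometry, three biological replicates, mitosis taken 0.5 h after nocodazole release, G1/S directly after double thymidine block.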

| Substance | solubility in G1/S (log2) [1] | melting temperature ([2]; cell cycle stage: G1/S) | melting temperature ([2]; cell cycle stage: mitosis) | solubility change mitosis (log2) [3] | thermal stability score [4, 5] | thermal stability score ([4]; cell cycle stage: mitosis) |
| --- | --- | --- | --- | --- | --- | --- |
| MEEHSYIQKELDLQNGSLEEDSVVHSVENDSQNMMESLSPKKYSSSLRFKANGDYSGSYLTLSQPVPAKRSPSPLGTSVRSSPSLAKIQGSKQFSYDGTDKNIPMKPPTPLLNTTSSLSGYPLGRADFDHYTGRDSERALRLSEKPPYSKYSSRHKSHDNVYSLGGLEGRKASGSLLAMWNGSSLSDAGPPPISRSGAASMPSSPKQARKMSIQDSLALQPKLTRHKELASENINLRTRKYSSSSLSHMGAYSRSLPRLYRATENQLTPLSLPPRNSLGNSKRTKLGEKDLPHSVIDNDNYLNFSSLSSGALPYKTSASEGNPYVSSTLSVPASPRVARKMLLASTSSCASDDFDQASYVGTNPSHSLLAGESDRVFATRRNFSCGSVEFDEADLESLRQASGTPQPALRERKSSISSISGRDDLMDYHRRQREERLREQEMERLERQRLETILSLCAEYTKPDSRLSTGTTVEDVQKINKELEKLQLSDEESVFEEALMSPDTRYRCHRKDSLPDADLASCGSLSQSSASFFTPRSTRNDELLSDLTRTPPPPSSTFPKASSESSYLSILPKTPEGISEEQRSQELAAMEETRIVILNNLEELKQKIKDINDQMDESFRELDMECALLDGEQKSETTELMKEKEILDHLNRKIAELEKNIVGEKTKEKVKLDAEREKLERLQELYSEQKTQLDNCPESMREQLQQQLKRDADLLDVESKHFEDLEFQQLEHESRLDEEKENLTQQLLREVAEYQRNIVSRKEKISALKKQANHIVQQAQREQDHFVKEKNNLIMMLQREKENLCNLEKKYSSLSGGKGFPVNPNTLKEGYISVNEINEPCGNSTNLSPSTQFPADADAVATEPATAVLASQPQSKEHFRSLEERKKQHKEGLYLSDTLPRKKTTSSISPHFSSATMGRSITPKAHLPLGQSNSCGSVLPPSLAAMAKDSESRRMLRGYNHQQMSEGHRQKSEFYNRTASESNVYLNSFHYPDHSYKDQAFDTLSLDSSDSMETSISACSPDNISSASTSNIARIEEMERLLKQAHAEKTRLLESREREMEAKKRALEEEKRRREILEKRLQEETSQRQKLIEKEVKIRERQRAQARPLTRYLPVRKEDFDLRSHVETAGHNIDTCYHVSITEKTCRGFLIKMGGKIKTWKKRWFVFDRNKRTFSYYADKHETKLKGVIYFQAIEEVYYDHLKNANKSPNPLLTFSVKTHDRIYYMVAPSPEAMRIWMDVIVTGAEGYTHFLL [PHLDB2] | -0.28 | 48.9 °C | 49.1 °C | 0.164 | -0.165 | 1.44 |
| MATKTAGVGRWEVVKKGRRPGVGAGAGGRGGGRNRRALGEANGVWKYDLTPAIQTTSTLYERGFENIMKRQNKEQVPPPAVEPKKPGNKKQPKKVATPPNQNQKQGRFRSLEEALKALDVADLQKELDKSQSVFSGNPSIWLKDLASYLNYKLQAPLSEPTLSQHTHDYPYSLVSRELRGIIRGLLAKAAGSLELFFDHCLFTMLQELDKTPGESLHGYRICIQAILQDKPKIATANLGKFLELLRSHQSRPAKCLTIMWALGQAGFANLTEGLKVWLGIMLPVLGIKSLSPFAITYLDRLLLMHPNLTKGFGMIGPKDFFPLLDFAYMPNNSLTPSLQEQLCQLYPRLKVLAFGAKPDSTLHTYFPSFLSRATPSCPPEMKKELLSSLTECLTVDPLSASVWRQLYPKHLSQSSLLLEHLLSSWEQIPKKVQKSLQETIQSLKLTNQELLRKGSSNNQDVVTCDMACKGLLQQVQGPRLPWTRLLLLLLVFAVGFLCHDLRSHSSFQASLTGRLLRSSGFLPASQQACAKLYSYSLQGYSWLGETLPLWGSHLLTVVRPSLQLAWAHTNATVSFLSAHCASHLAWFGDSLTSLSQRLQIQLPDSVNQLLRYLRELPLLFHQNVLLPLWHLLLEALAWAQEHCHEACRGEVTWDCMKTQLSEAVHWTWLCLQDITVAFLDWALALISQQ [TMEM214] | -0.173 | 51.1 °C | 49.8 °C | 0.000207 | -1.35 | -0.782 |
| MAVYVGMLRLGRLCAGSSGVLGARAALSRSWQEARLQGVRFLSSREVDRMVSTPIGGLSYVQGCTKKHLNSKTVGQCLETTAQRVPEREALVVLHEDVRLTFAQLKEEVDKAASGLLSIGLCKGDRLGMWGPNSYAWVLMQLATAQAGIILVSVNPAYQAMELEYVLKKVGCKALVFPKQFKTQQYYNVLKQICPEVENAQPGALKSQRLPDLTTVISVDAPLPGTLLLDEVVAAGSTRQHLDQLQYNQQFLSCHDPINIQFTSGTTGSPKGATLSHYNIVNNSNILGERLKLHEKTPEQLRMILPNPLYHCLGSVAGTMMCLMYGATLILASPIFNGKKALEAISRERGTFLYGTPTMFVDILNQPDFSSYDISTMCGGVIAGSPAPPELIRAIINKINMKDLVVAYGTTENSPVTFAHFPEDTVEQKAESVGRIMPHTEARIMNMEAGTLAKLNTPGELCIRGYCVMLGYWGEPQKTEEAVDQDKWYWTGDVATMNEQGFCKIVGRSKDMIIRGGENIYPAELEDFFHTHPKVQEVQVVGVKDDRMGEEICACIRLKDGEETTVEEIKAFCKGKISHFKIPKYIVFVTNYPLTISGKIQKFKLREQMERHLNL [ACSF2] | 0.27 | 49.4 °C | 49.8 °C | -0.0628 | 0.261 | 0.668 |
| MAAARPSLGRVLPGSSVLFLCDMQEKFRHNIAYFPQIVSVAARMLKVARLLEVPVMLTEQYPQGLGPTVPELGTEGLRPLAKTCFSMVPALQQELDSRPQLRSVLLCGIEAQACILNTTLDLLDRGLQVHVVVDACSSRSQVDRLVALARMRQSGAFLSTSEGLILQLVGDAVHPQFKEIQKLIKEPAPDSGLLGLFQGQNSLLH [ISOC2] | 0.188 | 55.1 °C | 54.9 °C | -0.173 | 1.82 | -1.19 |
| MSINLTVDIYIYLLSNARSVCGKQRSKQLYFLFSPKHYWRISHISLQRGFHTNIIRCKWTKSEAHSCSKHCYSPSNHGLHIGILKLSTSAPKGLTKVNICMSRIKSTLNSVSKAVFGNQNEMISRLAQFKPSSQILRKVSDSGWLKQKNIKQAIKSLKKYSDKSAEKSPFPEEKSHIIDKEEDIGKRSLFHYTSSITTKFGDSFYFLSNHINSYFKRKEKMSQQKENEHFRDKSELEDKKVEEGKLRSPDPGILAYKPGSESVHTVDKPTSPSAIPDVLQVSTKQSIANFLSRPTEGVQALVGGYIGGLVPKLKYDSKSQSEEQEEPAKTDQAVSKDRNAEEKKRLSLQREKIIARVSIDNRTRALVQALRRTTDPKLCITRVEELTFHLLEFPEGKGVAVKERIIPYLLRLRQIKDETLQAAVREILALIGYVDPVKGRGIRILSIDGGGTRGVVALQTLRKLVELTQKPVHQLFDYICGVSTGAILAFMLGLFHMPLDECEELYRKLGSDVFSQNVIVGTVKMSWSHAFYDSQTWENILKDRMGSALMIETARNPTCPKVAAVSTIVNRGITPKAFVFRNYGHFPGINSHYLGGCQYKMWQAIRASSAAPGYFAEYALGNDLHQDGGLLLNNPSALAMHECKCLWPDVPLECIVSLGTGRYESDVRNTVTYTSLKTKLSNVINSATDTEEVHIMLDGLLPPDTYFRFNPVMCENIPLDESRNEKLDQLQLEGLKYIERNEQKMKKVAKILSQEKTTLQKINDWIKLKTDMYEGLPFFSKL [PNPLA8] | 0.117 | 53.6 °C | 54 °C | -0.0941 | -0.78 | -0.701 |
| MRAVLAREMDGRRVLGRFWSGWRRGLGVRPVPEDAGFGTEARHQRQPRGSCQRSGPLGDQPFAGLLPKNLSREELVDALRAAVVDRKGPLVTLNKPQGLPVTGKPGELTLFSVLPELSQSLGLREQELQVVRASGKESSGLVLLSSCPQTASRLQKYFTHARRAQRPTATYCAVTDGIPAASEGKIQAALKLEHIDGVNLTVPVKAPSRKDILEGVKKTLSHFRVVATGSGCALVQLQPLTVFSSQLQVHMVLQLCPVLGDHMYSARVGTVLGQRFLLPAENNKPQRQVLDEALLRRLHLTPSQAAQLPLHLHLHRLLLPGTRARDTPVELLAPLPPYFSRTLQCLGLRLQ [RPUSD3] | 0.193 | 50.1 °C | 51.2 °C | 0.0294 | -1.94 | 0.774 |
| MAAQSAPKVVLKSTTKMSLNERFTNMLKNKQPTPVNIRASMQQQQQLASARNRRLAQQMENRPSVQAALKLKQSLKQRLGKSNIQARLGRPIGALARGAIGGRGLPIIQRGLPRGGLRGGRATRTLLRGGMSLRGQNLLRGGRAVAPRMGLRRGGVRGRGGPGRGGLGRGAMGRGGIGGRGRGMIGRGRGGFGGRGRGRGRGRGALARPVLTKEQLDNQLDAYMSKTKGHLDAELDAYMAQTDPETND [CHTOP] | -0.246 | 51 °C | 51.7 °C | 0.761 | -2.91 | -0.126 |
| MAGLGHPAAFGRATHAVVRALPESLGQHALRSAKGEEVDVARAERQHQLYVGVLGSKLGLQVVELPADESLPDCVFVEDVAVVCEETALITRPGAPSRRKEVDMMKEALEKLQLNIVEMKDENATLDGGDVLFTGREFFVGLSKRTNQRGAEILADTFKDYAVSTVPVADGLHLKSFCSMAGPNLIAIGSSESAQKALKIMQQMSDHRYDKLTVPDDIAANCIYLNIPNKGHVLLHRTPEEYPESAKVYEKLKDHMLIPVSMSELEKVDGLLTCCSVLINKKVDS [DDAH1] | 0.157 | 55.3 °C | 56.1 °C | 0.0143 | 0.276 | -0.764 |
| MTDSKYFTTNKKGEIFELKAELNNEKKEKRKEAVKKVIAAMTVGKDVSSLFPDVVNCMQTDNLELKKLVYLYLMNYAKSQPDMAIMAVNSFVKDCEDPNPLIRALAVRTMGCIRVDKITEYLCEPLRKCLKDEDPYVRKTAAVCVAKLHDINAQMVEDQGFLDSLRDLIADSNPMVVANAVAALSEISESHPNSNLLDLNPQNINKLLTALNECTEWGQIFILDCLSNYNPKDDREAQSICERVTPRLSHANSAVVLSAVKVLMKFLELLPKDSDYYNMLLKKLAPPLVTLLSGEPEVQYVALRNINLIVQKRPEILKQEIKVFFVKYNDPIYVKLEKLDIMIRLASQANIAQVLAELKEYATEVDVDFVRKAVRAIGRCAIKVEQSAERCVSTLLDLIQTKVNYVVQEAIVVIRDIFRKYPNKYESIIATLCENLDSLDEPDARAAMIWIVGEYAERIDNADELLESFLEGFHDESTQVQLTLLTAIVKLFLKKPSETQELVQQVLSLATQDSDNPDLRDRGYIYWRLLSTDPVTAKEVVLSEKPLISEETDLIEPTLLDELICHIGSLASVYHKPPNAFVEGSHGIHRKHLPIHHGSTDAGDSPVGTTTATNLEQPQVIPSQGDLLGDLLNLDLGPPVNVPQVSSMQMGAVDLLGGGLDSLVGQSFIPSSVPATFAPSPTPAVVSSGLNDLFELSTGIGMAPGGYVAPKAVWLPAVKAKGLEISGTFTHRQGHIYMEMNFTNKALQHMTDFAIQFNKNSFGVIPSTPLAIHTPLMPNQSIDVSLPLNTLGPVMKMEPLNNLQVAVKNNIDVFYFSCLIPLNVLFVEDGKMERQVFLATWKDIPNENELQFQIKECHLNADTVSSKLQNNNVYTIAKRNVEGQDMLYQSLKLTNGIWILAELRIQPGNPNYTLSLKCRAPEVSQYIYQVYDSILKN [AP2B1] | 0.198 | 51.6 °C | 52 °C | -0.0379 | -1.91 | 3.3 |
| PLXND1 | 0.0061 | 49.5 °C | 48.7 °C | -0.0638 | 0.367 | 0.672 |
